Data: CN108752475A (BEIJING WISDOMAB BIOTECHNOLOGY CO LTD, dated 2018)
Like-named read-outs stand apart in the source and are kept apart here.

T1: 小鼠CD38胞外区 (mCD38) with C-terminal His tag, mCD38-his (mouse (mus musculus), UniProt P56528 45-304)
T1 construct: Recombinant, made in HEK293 cells; coated on the ELISA plate; not shown: His tag added at the C-terminus
T1 sequence: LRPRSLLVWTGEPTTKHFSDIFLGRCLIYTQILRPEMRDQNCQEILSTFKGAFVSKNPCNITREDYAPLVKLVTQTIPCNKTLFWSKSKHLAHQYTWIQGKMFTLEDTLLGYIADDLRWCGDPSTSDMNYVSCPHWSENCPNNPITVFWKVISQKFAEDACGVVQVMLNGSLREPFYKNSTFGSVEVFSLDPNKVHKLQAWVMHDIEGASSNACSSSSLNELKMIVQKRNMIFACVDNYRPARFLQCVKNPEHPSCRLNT


What was measured:
[1] = molecular target: T1, 小鼠CD38胞外区 (mCD38) with C-terminal His …; test: ELISA, mCD38-his coated at 1.5 μg/ml, HRP anti-human IgG detection
[2] = molecular target: T2, 食蟹猴CD38胞外区 (mfCD38) with C-terminal His tag, mfCD38-his (cynomolgus monkey (Macaca fascicularis), UniProt Q5VAN0 44-301); test: SPR (Biacore), antibody captured by anti-human Fc on CM5, mfCD38 as analyte
T2 construct: not shown: His tag added at the C-terminus
T2 sequence (Q5VAN0 44-301): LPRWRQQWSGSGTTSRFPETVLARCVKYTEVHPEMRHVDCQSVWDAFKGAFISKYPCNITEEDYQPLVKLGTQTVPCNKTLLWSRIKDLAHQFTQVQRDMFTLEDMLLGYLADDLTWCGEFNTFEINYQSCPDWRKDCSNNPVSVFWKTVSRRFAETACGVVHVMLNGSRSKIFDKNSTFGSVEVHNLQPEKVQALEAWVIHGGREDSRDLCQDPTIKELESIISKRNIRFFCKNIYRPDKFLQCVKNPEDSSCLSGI

[3] = molecular target: T3, 人CD38胞外区 (hCD38) with C-terminal His tag, hCD38-his (human (homo sapiens), UniProt P28907 43-300); test: SPR (Biacore), antibody captured by anti-human Fc on CM5, hCD38 as analyte, 25 °C
T3 construct: Recombinant, made in HEK293 cells; not shown: His tag added at the C-terminus

[4] = molecular target: T3, 人CD38胞外区 (hCD38) with C-terminal His …; test: as above; remark: listed apart in the source

Binder | binding result [1] | Kd [2] | Kd [3] | Kd [4]
S5B8 (mouse-human chimeric antibody, human IgG1) (antibody, V domains shown, Tested as a recombinant human IgG1-kappa/lambda mouse-human chimeric antibody; also called 鼠单抗S5B8) VH: QVQLQQSGSVLVRPGVSVKLSCKASGYAFTNSWMHWAKQRPGQGLEWIGEIHPQSGRTNYNEKFKGKATLTVDTSSSTAYVDFSSLTSEDSAVYYCARDLLQFGNQYYYAMDYWGQGTSVTVSS VL: DVVMTQTPLSLPVSLGDQASISCRSSQSLVHSNGNTYLHWYLQKPGQSPKLLIYKVSNRFSGVPDRFSGSGSGTDFTLKISRVEAEDLGVYFCSQSTHVPLTFGAGTKLEMK | no binding | 3.14 nM | 0.178 nM | 
S5B8VH-h2+S5B8VK-h2 (antibody, human IgG1, V domains shown, Humanized, expressed as a human IgG1 whole antibody; also called S5B8人源化分子) VH: QVQLVQSGAEVKKPGASVKVSCKASGYAFTNSWMHWVRQAPGQGLEWMGEIHPQSGRTNYNEKFKGRVTMTRDTSTSTVYMELSSLRSEDTAVYYCARDLLQFGNQYYYAMDYWGQGTLVTVSS VL: DIVMTQTPLSLPVTPGEPASISCRSSQSLVHSNGNTYLHWYLQKPGQSPQLLIYKVSNRFSGVPDRFSGSGSGTDFTLKISRVEAEDVGVYYCSQSTHVPLTFGQGTKLEIK |  | 3.48 nM | 0.0486 nM | 
S5B7 (mouse-human chimeric antibody, human IgG1) (antibody, Tested as a human IgG1-kappa/lambda chimeric antibody built from the variable domains of this scFv) scFv: QVQLQQPGSVLVRPGASVKLSCKATGYTFSSYWIEWVKQRPGHGLEWIGDILPGTGTTNYNEKFKGKATFTADTSSNTAYMQFSSLTSEDSAVYYCASSYGNYVWGQGTSLTVSSGGGGSGGGGSGGGGSDVVMTQSPASLAVSLGQRATISCKASQSVDYDGDSYMNWYQQKPGQPPRLLIYAASNLESGIPARFSGSGSGTDFTLNIHPVEEEDAATYYCQQGNGAPRTFGGGTKLEIK | no binding |  |  | 
S5B5 (mouse-human chimeric antibody, human IgG1) (antibody, Tested as a human IgG1-kappa/lambda chimeric antibody built from the variable domains of this scFv) scFv: QVKLQQFGAELVKPGASVKISCKATGYTFSSYWIGWVKQRPGHGLEWIGEILPGTGSTNYNEKFKDKATFTADTSPNTAYMQLSSLTSEDSAVYYCARWDGNYGDYALDYWGQGTSVTVSAGGGGSGGGGSGGGGSDIVMTQSPSSMYASLGERVTITCKASQDINSYLSWFQQKPGKSPKTLIYRANRLVDGVPSRFSGSGSGQDYSLTISSLEYEDMGIYYCLQYDEFPYTFGGGTKLEIK | no binding |  |  | 
S5B8VH-h1+S5B8VK-h1 (antibody, human IgG1, V domains shown, Humanized, expressed as a human IgG1 whole antibody; also called S5B8人源化分子) VH: QVQLVQSGAEVKKPGASVKVSCKASGYAFTNSWMHWVRQAPGQRLEWMGEIHPQSGRTNYNEKFKGRVTITRDTSASTAYMELSSLRSEDTAVYYCARDLLQFGNQYYYAMDYWGQGTLVTVSS VL: DVVMTQSPLSLPVTLGQPASISCRSSQSLVHSNGNTYLHWFQQRPGQSPRRLIYKVSNRFSGVPDRFSGSGSGTDFTLKISRVEAEDVGVYYCSQSTHVPLTFGQGTKLEIK |  | 13.6 nM | 0.371 nM | 
S5B8VH-h2+S5B8VK-h1 (antibody, human IgG1, V domains shown, Humanized, expressed as a human IgG1 whole antibody; also called S5B8人源化分子) VH: QVQLVQSGAEVKKPGASVKVSCKASGYAFTNSWMHWVRQAPGQGLEWMGEIHPQSGRTNYNEKFKGRVTMTRDTSTSTVYMELSSLRSEDTAVYYCARDLLQFGNQYYYAMDYWGQGTLVTVSS VL: DVVMTQSPLSLPVTLGQPASISCRSSQSLVHSNGNTYLHWFQQRPGQSPRRLIYKVSNRFSGVPDRFSGSGSGTDFTLKISRVEAEDVGVYYCSQSTHVPLTFGQGTKLEIK |  | 9.66 nM | 0.406 nM | 
S5B8VH-h1+S5B8VK-h2 (antibody, human IgG1, V domains shown, Humanized, expressed as a human IgG1 whole antibody; also called S5B8人源化分子) VH: QVQLVQSGAEVKKPGASVKVSCKASGYAFTNSWMHWVRQAPGQRLEWMGEIHPQSGRTNYNEKFKGRVTITRDTSASTAYMELSSLRSEDTAVYYCARDLLQFGNQYYYAMDYWGQGTLVTVSS VL: DIVMTQTPLSLPVTPGEPASISCRSSQSLVHSNGNTYLHWYLQKPGQSPQLLIYKVSNRFSGVPDRFSGSGSGTDFTLKISRVEAEDVGVYYCSQSTHVPLTFGQGTKLEIK |  | 5.15 nM | 0.0894 nM | 
S5A10-h1 (antibody, human IgG1, V domains shown, Humanized, expressed as a human IgG1 whole antibody; also called S5A10VH-h1+S5A10VK-h1; S5A10人源化分子) VH: QVQLVQSGAEVKKPGSSVKVSCKASDYPFISYTIHWVRQAPGQGLEWMGYINPSNGYTNYNQKFKDRVTITADKSTSTAYMELSSLRSEDTAVYYCARKYGNFYAMDYWGQGTLVTVSS VL: DIQMTQSPSSLSASVGDRVTITCRASENIYSYLAWYQQKPGKAPKLLIYNAKTLAEGVPSRFSGSGSGTDFTLTISSLQPEDFATYYCQHHYGTPYTFGQGTKLEIK |  |  |  | 2.73 nM

Results, then the binder that gave them:

binding result [1] | Kd [2] | Kd [3] | Kd [4] | Binder
no binding |  |  |  | S5E3 (mouse-human chimeric antibody, human IgG1) (antibody, Tested as a human IgG1-kappa/lambda chimeric antibody built from the variable domains of this scFv) scFv: QVQLQQSGPEVVKPGASVKMSCKATGYTSRSYWIEWVKQRPGHGLEWIGEILPGSGSTNYNEKFKGKATFTADTSSNTAYMQLSSLTSEDSAVYYCARWDGNYGDFVLDYWGQGTSVTVSSGGGGSGGGGSGGGGSDIQMTQSPSSMYASLGERVTITCKASQDINSYLSWFQQKPGKSPKTLIYRANRLVDGVPSRFSGSGSGQDYFLTISSLEYEDMGIYYCLQYDEFPYTFGGGTKLEMK
no binding |  |  |  | S5B4 (mouse-human chimeric antibody, human IgG1) (antibody, Tested as a human IgG1-kappa/lambda chimeric antibody built from the variable domains of this scFv) scFv: QVKLQQSGAELMKPGASVKISCKATGYTFSSYWIGWLKQRPGHGLEWVGELLPGSGSTNYNEKFKGKATFTADTSSNTAYMQLSSLTSEDSAVYYCARWDGNYGDYTLDYWGQGTSVTVSSGGGGSGGGGSGGGGSDIVMTQSPSSMYASLGERVTITCKASQDINSYLSWFQQKPGKSPKTLIYRANRLVDGVPSRFSGSGSGQDYSLTISSLEYEDMGIYYCLQYDEFPYTFGGGTKLEMK
no binding |  |  |  | S5D3 (mouse-human chimeric antibody, human IgG1) (antibody, Tested as a human IgG1-kappa/lambda chimeric antibody built from the variable domains of this scFv) scFv: QVQLQQSGAELMKPGASVKISCKATGYTSSSYWIEWVKQRPGHGLEWIGEILPGSGSTNYNEKFKGKATFTADTSSNTAYMQLSSLTSEDSAVYYCARLYDNSYFDYWGQGTSLTVSSGGGGSGGGGSGGGGSDIVMTQSPSSMYASLGERVTITCKASQDINSYLSWFQQKPGKSPKTLIYRANRLVDGVPSRFSGSGSGQDYSLTISSLEYEDMGIYYCLQYDEFPYTFGGGTKLEMK
